Test results taken from publication PMC5691035 (Nature Communications, 2017).

Each binder was assayed against Pfs25, monomeric, produced in Nicotiana benthamiana (Plasmodium falciparum (NF54; identical …, UniProt P13829) (assay: BLI). Settings: both partners purified.
Sequence of Pfs25, monomeric, produced in Nicotiana benthamiana (Plasmodium falciparum (P13829 22-193): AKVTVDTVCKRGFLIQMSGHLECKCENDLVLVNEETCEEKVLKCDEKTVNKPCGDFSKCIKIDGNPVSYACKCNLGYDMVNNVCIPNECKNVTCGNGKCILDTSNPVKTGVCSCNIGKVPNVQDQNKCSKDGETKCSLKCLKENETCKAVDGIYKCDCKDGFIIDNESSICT

| Binder | Kd [nM] | koff [s⁻¹] | kon [M⁻¹ s⁻¹] |
| --- | --- | --- | --- |
| 1260 Fab (Fab, V domains shown, source: HEK293F, transiently expressed, purified (KappaSelect or LambdaSelect, MonoS, Superdex 200)) VH: QVQLVQSGAEVKKPGASVKVSCRASGYIFTSYGFSWVRQAPGQGLEWMGWISAYNGNTDYSQKLQGRVTMTTDTSTNTVYMELRTLQSDDTAVYYCARDRGDRLYYYYYYGMDVWGQGTTVTVSS VL: not shown | 41 | 0.00093 | 23000 |
| 1262 Fab (Fab, V domains shown, source: HEK293F, transiently expressed, purified (KappaSelect or LambdaSelect, MonoS, Superdex 200)) VH: QVQLQESGPGLVKPSGTLSLTCAVSGGSISSSHWWSWVRQPPGKGLEWVGEISLSGSTHYGPSLKSRVSISLDKSMNHFSLRLSSVTAADTAVYYCARESRFYGAYFDYWGQGTLVTVSS VL: DIQLTQSPSFLSASVGDRVTITCWASQGINSYLAWYQQKPGKTPKLLIYAASTLQSGVPSRFSGSGSGTEFTLTISSLQPEDFATYYCQQLNSYPCSFGQGTTLEIK | 12 | 0.0011 | 80000 |
| 1268 Fab (Fab, V domains shown, source: HEK293F, transiently expressed, purified (KappaSelect or LambdaSelect, MonoS, Superdex 200)) VH: EVQLVESGGGLVKPGGSLRLSCAASGFTFSRYSMNWVRQAPGKGLEWVSSISSRSSYKYYVDSVKGRFTISRDNAKNSLYLQMNSLRAEDTAVYYCARDDYGSGSYYYNWLDPWGQGTLVTVSS VL: DIQLTQSPSFLSASVGDRVTITCWASQGISSFLAWYQQKPGKAPKLLIYAASTLESGVPSRFSGSGSGTEFTLTISSLQPEDFATYYCQQLNSYPRTFGQGTKVEIK | 67 | 0.006 | 93000 |
| 1202 Fab (Fab, V domains shown, source: HEK293F, transiently expressed, purified (LambdaSelect or KappaSelect, MonoS, Superdex 200)) VH: QVQLVESGGDLVKPGGSLRLSCAASGFTFSDHYMNWIRQAPGKGLEWVSYISSSGSTIYYSDSVKGRFTISRDNAKYLLSLQMNSLRAEDTAVYFCARDPMVRGFHDAFDIWGQGTMVTVSS VL: SYELTQPPSVSVSPGQTASITCSGDKLGDKYASWYQQKPGQSPVLVIFQDNKRPSGIPERFSGSNSGNTATLTISETQAMDEADYYCQAWDISTAVFGTGTNVT | 35 | 0.016 | 480000 |
| 1276 Fab (Fab, V domains shown, source: HEK293F, transiently expressed, purified (LambdaSelect or KappaSelect, MonoS, Superdex 200)) VH: not shown VL: SYVLTQPPSVSVAPGKTAKITCGGNNIGSKSVHWYQQKPGQAPVLVMYYDFDRPSGIPERFSGSNSGNTATLTISRVEAEDEADYYCQVWDSDRYWVFGGGTKLTVL |  | 0.0037 | 210000 |
| 1266 Fab (Fab, V domains shown, source: HEK293F, transiently expressed, purified (LambdaSelect or KappaSelect, MonoS, Superdex 200)) VH: QVQLQQSGPGLVKPSQTLSLTCAISGDSVSSNSAAWNWIRQSPSRGLEWLGRTYYRSKWYNDYAVSVKSRITINADTSKNQFSLQLNSVTPEDTAVYYCVRDLLGSSGWYVFFDNWGQGTLVTVSS VL: SYELTQPPSVSVSPGQSARITCSGDALPMKYAYWYQQKSGQAPVLVIYEDSKRPSGIPERFSGSSSGTMATLTISGAQVEDEADYYCFSTDSSGNHRVFGGGTKLT | 31 | 0.012 | 420000 |
| 1267 Fab (Fab, V domains shown, source: HEK293F, transiently expressed, purified (LambdaSelect or KappaSelect, MonoS, Superdex 200)) VH: QVQLQQSGPGLVKPSQTLSLTCAISGDSVSSNSAAWNWIRQSPSRGLEWLGRTYYRSKWYNDYAVSVRGRITINPDTSKNHFSLQLNSVTPEDTAVYFCARDLMTNSGWYVYFDCWGQGTLVTVSS VL: SYELTQPPSVSVSPGQSARITCSGDALPMKYAYWYQQKSGQAPVLVIYEDSKRPSGIPERFSGSSSGTMATLTISGAQVEDEADYYCFSTDSSGNHRVFGGGTKLT | 7.9 | 0.0032 | 430000 |
| 1269 Fab (Fab, V domains shown, source: HEK293F, transiently expressed, purified (KappaSelect or LambdaSelect, MonoS, Superdex 200)) VH: EVQLVESGGGLVQSGGSLRLSCAASGFTFSRNAMNWVRQAPGKGLEWVSTISGSGDSTYYADSVKGRFTISRDNSKNTLYLQVNSLRAEDTAVYYCAKGDYYFDSGSYSFGMDVWGQGTTVTVSS VL: EIVLTQSPGTLSLSPGERATLSCRTSQSVSSSYLAWYQQKPGQAPRLLMYGASSRATGIPDRFSGSGSGTDFTLTISRLEPEDFAVYYCQQYGNSFGQGTRLEIK |  | 0.00084 | 220000 |
| 1245 Fab (Fab, V domains shown, source: HEK293F, transiently expressed, purified (KappaSelect or LambdaSelect, MonoS, Superdex 200)) VH: QVQLVQSGGEVKKPGASVKVSCKASGYTFTSYGISWVRQAPGQGLEWMGWISAYNGNRKYAQKVQGRVSMTIDTHTSTANMELRSLRSDDTAVYYCAKDRGDGDYRYYYYGMDVWGQGTTVTVSS VL: not shown |  | 0.00038 | 22000 |
| 1190 Fab (Fab, V domains shown, source: HEK293F, transiently expressed, purified (LambdaSelect or KappaSelect, MonoS, Superdex 200)) VH: not shown VL: SYVLTQPPSVSVAPGQTARITCGGSNIGSKSVHWYQQKPGQTPMLVIYYDYDRPSGIPERFSGSNSGSTATLTISRVEAGDEADYYCQVWDSSSDHVWVFGGGTTLTVL |  | 0.0021 | 300000 |

What follows are binders tested against Pfs25, monomeric, Nicotiana benthamiana-produced (Plasmodium falciparum (NF54; identical …, UniProt P13829) (assay: BLI). Settings: both partners purified.
Sequence of Pfs25, monomeric, Nicotiana benthamiana-produced (Plasmodium falciparum (P13829 17-196): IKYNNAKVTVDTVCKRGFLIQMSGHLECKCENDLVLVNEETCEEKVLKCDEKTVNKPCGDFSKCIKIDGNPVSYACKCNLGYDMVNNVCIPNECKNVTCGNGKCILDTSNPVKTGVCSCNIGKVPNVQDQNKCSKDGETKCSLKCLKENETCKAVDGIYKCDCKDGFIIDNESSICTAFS

| Binder | binding result | Kd [nM] |
| --- | --- | --- |
| 1260 Fab (Fab, V domains shown, also called mAb 1260; source: HEK293F, transient, purified (KappaSelect or LambdaSelect, MonoS, SEC)) VH: QVQLVQSGAEVKKPGASVKVSCRASGYIFTSYGFSWVRQAPGQGLEWMGWISAYNGNTDYSQKLQGRVTMTTDTSTNTVYMELRTLQSDDTAVYYCARDRGDRLYYYYYYGMDVWGQGTTVTVSS VL: not shown | binds |  |
| 1262 Fab (Fab, V domains shown, also called mAb 1262; source: HEK293F, transient, purified (KappaSelect or LambdaSelect, MonoS, SEC)) VH: QVQLQESGPGLVKPSGTLSLTCAVSGGSISSSHWWSWVRQPPGKGLEWVGEISLSGSTHYGPSLKSRVSISLDKSMNHFSLRLSSVTAADTAVYYCARESRFYGAYFDYWGQGTLVTVSS VL: DIQLTQSPSFLSASVGDRVTITCWASQGINSYLAWYQQKPGKTPKLLIYAASTLQSGVPSRFSGSGSGTEFTLTISSLQPEDFATYYCQQLNSYPCSFGQGTTLEIK | binds |  |
| 1268 Fab (Fab, V domains shown, also called mAb 1268; source: HEK293F, transient, purified (KappaSelect or LambdaSelect, MonoS, SEC)) VH: EVQLVESGGGLVKPGGSLRLSCAASGFTFSRYSMNWVRQAPGKGLEWVSSISSRSSYKYYVDSVKGRFTISRDNAKNSLYLQMNSLRAEDTAVYYCARDDYGSGSYYYNWLDPWGQGTLVTVSS VL: DIQLTQSPSFLSASVGDRVTITCWASQGISSFLAWYQQKPGKAPKLLIYAASTLESGVPSRFSGSGSGTEFTLTISSLQPEDFATYYCQQLNSYPRTFGQGTKVEIK | binds |  |
| 1202 Fab (Fab, V domains shown, also called mAb 1202; source: HEK293F, transient, purified (KappaSelect or LambdaSelect, MonoS, SEC)) VH: QVQLVESGGDLVKPGGSLRLSCAASGFTFSDHYMNWIRQAPGKGLEWVSYISSSGSTIYYSDSVKGRFTISRDNAKYLLSLQMNSLRAEDTAVYFCARDPMVRGFHDAFDIWGQGTMVTVSS VL: SYELTQPPSVSVSPGQTASITCSGDKLGDKYASWYQQKPGQSPVLVIFQDNKRPSGIPERFSGSNSGNTATLTISETQAMDEADYYCQAWDISTAVFGTGTNVT | binds |  |
| 1266 Fab (Fab, V domains shown, also called mAb 1266; source: HEK293F, transient, purified (KappaSelect or LambdaSelect, MonoS, SEC)) VH: QVQLQQSGPGLVKPSQTLSLTCAISGDSVSSNSAAWNWIRQSPSRGLEWLGRTYYRSKWYNDYAVSVKSRITINADTSKNQFSLQLNSVTPEDTAVYYCVRDLLGSSGWYVFFDNWGQGTLVTVSS VL: SYELTQPPSVSVSPGQSARITCSGDALPMKYAYWYQQKSGQAPVLVIYEDSKRPSGIPERFSGSSSGTMATLTISGAQVEDEADYYCFSTDSSGNHRVFGGGTKLT | binds |  |
| 1267 Fab (Fab, V domains shown, also called mAb 1267; source: HEK293F, transient, purified (KappaSelect or LambdaSelect, MonoS, SEC)) VH: QVQLQQSGPGLVKPSQTLSLTCAISGDSVSSNSAAWNWIRQSPSRGLEWLGRTYYRSKWYNDYAVSVRGRITINPDTSKNHFSLQLNSVTPEDTAVYFCARDLMTNSGWYVYFDCWGQGTLVTVSS VL: SYELTQPPSVSVSPGQSARITCSGDALPMKYAYWYQQKSGQAPVLVIYEDSKRPSGIPERFSGSSSGTMATLTISGAQVEDEADYYCFSTDSSGNHRVFGGGTKLT | binds |  |
| 1269 Fab (Fab, V domains shown, also called mAb 1269; source: HEK293F, transient, purified (KappaSelect or LambdaSelect, MonoS, SEC)) VH: EVQLVESGGGLVQSGGSLRLSCAASGFTFSRNAMNWVRQAPGKGLEWVSTISGSGDSTYYADSVKGRFTISRDNSKNTLYLQVNSLRAEDTAVYYCAKGDYYFDSGSYSFGMDVWGQGTTVTVSS VL: EIVLTQSPGTLSLSPGERATLSCRTSQSVSSSYLAWYQQKPGQAPRLLMYGASSRATGIPDRFSGSGSGTDFTLTISRLEPEDFAVYYCQQYGNSFGQGTRLEIK |  | 3.7 |
| 1269 IgG (antibody, V domains shown, IgG1; also called mAb 1269; source: HEK293, transient, purified from conditioned medium (Protein A); synthesized by LakePharma) VH: EVQLVESGGGLVQSGGSLRLSCAASGFTFSRNAMNWVRQAPGKGLEWVSTISGSGDSTYYADSVKGRFTISRDNSKNTLYLQVNSLRAEDTAVYYCAKGDYYFDSGSYSFGMDVWGQGTTVTVSS VL: EIVLTQSPGTLSLSPGERATLSCRTSQSVSSSYLAWYQQKPGQAPRLLMYGASSRATGIPDRFSGSGSGTDFTLTISRLEPEDFAVYYCQQYGNSFGQGTRLEIK |  | < 0.001 |
| 1245 IgG (antibody, V domains shown, IgG1; also called mAb 1245; source: HEK293, transient, purified from conditioned medium (Protein A); synthesized by LakePharma) VH: QVQLVQSGGEVKKPGASVKVSCKASGYTFTSYGISWVRQAPGQGLEWMGWISAYNGNRKYAQKVQGRVSMTIDTHTSTANMELRSLRSDDTAVYYCAKDRGDGDYRYYYYGMDVWGQGTTVTVSS VL: not shown |  | < 0.001 |
| 1245 Fab (Fab, V domains shown, also called mAb 1245; source: HEK293F, transient, purified (KappaSelect or LambdaSelect, MonoS, SEC)) VH: QVQLVQSGGEVKKPGASVKVSCKASGYTFTSYGISWVRQAPGQGLEWMGWISAYNGNRKYAQKVQGRVSMTIDTHTSTANMELRSLRSDDTAVYYCAKDRGDGDYRYYYYGMDVWGQGTTVTVSS VL: not shown |  | 31 |
